The supplement of paper PMC12764529
± gives the half width of the 95% confidence interval.

Legend:
[1] = folding stability dG unfold from trypsin proteolysis; higher = more stable
Summary of the method: (§1)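 Bayesian fitting of sequencing counts gave K50 for each design. Unfolding free energy followed by setting this against a sequence-predicted unfolded-state K50 and a shared folded-state K50, either per protease or with trypsin and chymotrypsin combined. The designs, under 80 residues and lacking cysteine, were digested in a PA-tagged cDNA display format at 11 threefold-diluted protease concentrations and without protease, and only those with AlphaFold2 dimer inter-PAE above 15 were kept.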

[2] = folding stability dG unfold from chymotrypsin proteolysis; higher = more stable
Summary of the method: as §1

[3] = folding stability dG unfold (combined trypsin and chymotrypsin); higher = more stable
Summary of the method: as §1

| Sequence | folding stability dG unfold [1] | folding stability dG unfold [2] | folding stability dG unfold [3] |
| --- | --- | --- | --- |
| SMKIPVKTNDPEALKELLNKIKEILEKAKEKGYEIFPIPIILDNGKEIIFPIDPNDKIEEVIKKIEEALKSA [r9_127_TrMRF] | 2.7 ± 0.15 kcal/mol | 1.38 ± 0.097 kcal/mol | 2.02 ± 0.23 kcal/mol |
| SMKITEIEPDGDGTLEIEIPVEAPPGMDPDEVQIYVMSDDGIRHVRITPNGTVEITIENIPDIRIYIFVHSA [r9_722_TrROS] | 1.79 ± 0.051 kcal/mol | 2.47 ± 0.073 kcal/mol | 2.26 ± 0.079 kcal/mol |
| SMKITTDPVNKTISATFPPGTDPLAETQKIVDEVKKKENSGDITITFSTGNTTINYTLGTNTVTTTPAGTSA [r9_224_JUSTAS] | -0.0577 ± 0.063 kcal/mol | -0.35 ± 0.19 kcal/mol | -0.0954 ± 0.096 kcal/mol |
| SMKIVEVEVFEDPETGKLVVIVKLDGEEVVEVEEGEKVEIEVEPGDTLLVFVVDAETGEIKEEKEIKVEESA [r9_209_TrROS_Hall] | 0.541 ± 0.12 kcal/mol | 1.2 ± 0.12 kcal/mol | 1.11 ± 0.16 kcal/mol |
| SMKIVIVKNKDGTVIVRITFPNGEEITITAKTEEEAKKAIEELIKKLQEKYNIKIKIEVKPVKPGEVIEESA [r9_786_TrROS_Hall] | 2.92 ± 0.093 kcal/mol | 2.84 ± 0.08 kcal/mol | 2.93 ± 0.15 kcal/mol |
| SMKIYKTKEEAEKAAKETGKKVIVIKKGMSLEELLELLKKLKGLKEGQKVILVIQNEDGETYVIVLEIKPSA [r9_314_TrROS_Hall] | 1.82 ± 0.099 kcal/mol | 1.43 ± 0.13 kcal/mol | 1.74 ± 0.17 kcal/mol |
| SMKKKVVVKAKIEKIRPDGGKEELEEVFVMEVSPDDPEEIKAAIDEAIEALKKAYPNIKKIEIEEVIIEDSA [r9_436_TrMRF] | 3.81 ± 0.24 kcal/mol | 3.36 ± 0.21 kcal/mol | 3.79 ± 0.36 kcal/mol |
| SMKKTIIIKVKKEDMTPEEIAKKLAELGYEVEIVDVEYDEETEEVYITVEIYDENGELIEKIEIKLPRKDSA [r9_879_TrROS_Hall] | 0.825 ± 0.16 kcal/mol | 0.956 ± 0.17 kcal/mol | 0.916 ± 0.42 kcal/mol |
| SMKKTYTFPVTLVPKDGKASLTVNWYAPDGTSLGTQTKSASAEGNTVTATVTVTVDAPPGAKIPSITVNASA [r9_292_JUSTAS] | 0.091 ± 0.041 kcal/mol | 0.473 ± 0.052 kcal/mol | 0.353 ± 0.038 kcal/mol |
| SMKKVLIVTPNPEINPEEVVKALKEKGFKEIKVFSTPEELKEALPEYDIVIIEENGKLYIKYIPPGKLAKSA [r9_750_TrMRF] | 0.334 ± 0.17 kcal/mol | 1.79 ± 0.12 kcal/mol | 1.35 ± 0.27 kcal/mol |
| SMKLIGVEEFENAKAVLFEKEDKYIKLVFIPEDIPEGEEIYYIKVFEGDEIIEEKAVKPEEIEEAIKEAGSA [r9_57_TrMRF] | 0.00129 ± 0.12 kcal/mol | 0.643 ± 0.21 kcal/mol | 0.428 ± 0.21 kcal/mol |
| SMKLIGYDPVTGKPVTLTFDPETKTVTVTHPNGEKITAPAESITFDPETGTVTITLPTKTVTFYVPPEANSA [r9_325_TrMRF] | 3.89 ± 0.27 kcal/mol | 4.93 ± 0.12 kcal/mol | 4.82 ± 0.2 kcal/mol |
| SMKPGDWKWIMFRFPDAENMEITIPIPLPPGYRVWFFFMNGERHEIPAGQEIKFKMPPGEPMWMMIWIWKSA [r9_79_TrROS] | 3.66 ± 0.11 kcal/mol | 4.7 ± 0.1 kcal/mol | 4.06 ± 0.26 kcal/mol |
| SMKPGEVKELTLKLTIPVKPGEITVTLVLKLEDGRYVVVESRATVKEDGTIEIEVKIRVYDPKTNEWKELSA [r9_349_TrROS_Hall] | 2.37 ± 0.19 kcal/mol | 3.28 ± 0.18 kcal/mol | 2.89 ± 0.35 kcal/mol |
| SMKPGQTVTFNVMIRMKDPNMTAQEFAEEAADEIAENFPPGVKIEIKVDDIEPDPPNGEVYFMVKITITVSA [r9_706_TrROS] | 2.54 ± 0.17 kcal/mol | 4 ± 0.13 kcal/mol | 3.35 ± 0.23 kcal/mol |
| SMKPITLEEALKLAEKLIEEGAKEVVIIRREDGTLLAIMEAEEASPEKVKEFLEANPNVRVLRITGSKEESA [r9_568_TrMRF] | 3.17 ± 0.15 kcal/mol | 3.11 ± 0.045 kcal/mol | 3.07 ± 0.12 kcal/mol |
| SMKPPVVEIKAKVVEVKEVNGKLYVKVEITEIKDAPPEVKELIKEGKTILVEVKPGEEVKEGDEVTIKIVSA [r9_557_TrROS_Hall] | 2.46 ± 0.21 kcal/mol | 2.03 ± 0.22 kcal/mol | 2.32 ± 0.3 kcal/mol |
| SMKPVKITEVTEDTITVTVTVYDKETNRLVKVTAEITFDKETKKLTIKVKVEVLPPLSEEQRKALEEALKSA [r9_1038_TrROS_Hall] | 1.98 ± 0.076 kcal/mol | 2.94 ± 0.07 kcal/mol | 2.74 ± 0.17 kcal/mol |

| Sequence | folding stability dG unfold [1] | folding stability dG unfold [2] | folding stability dG unfold [3] |
| --- | --- | --- | --- |
| SMKSEEEKKAKELKKQKPVIVFDKETGKITVYDAKTGKKIEIEVKVKKTKDGKVEPLTEEELKKLLKKLASA [r9_1056_TrROS_Hall] | 1.63 ± 0.077 kcal/mol | 1.19 ± 0.28 kcal/mol | 1.12 ± 0.38 kcal/mol |
| SMKSKIEVKTVTFTFSPDDPLAKTPLEEIISEKAKKEGKKIEIPSYSYTSTDPAKGTKTYTFTVKIIKEESA [r9_107_JUSTAS] | 0.122 ± 0.16 kcal/mol | 0.797 ± 0.21 kcal/mol | 0.534 ± 0.14 kcal/mol |
| SMKTVVIKIRKKDGKVTLEEIREAIKALLPPGAKVKLTEEELEKLVEELEKKTGKEITADDLVIVVEVEPSA [r9_197_TrROS_Hall] | 2.29 ± 0.085 kcal/mol | 2.59 ± 0.081 kcal/mol | 2.51 ± 0.16 kcal/mol |
| SMKVEIEEEVEGDRITLTIKFDDEEEAEKAIKELAKELGIPMKVLSRESEKLPGGEYKLTITGEVPPDLKSA [r9_102_JUSTAS] | 0.192 ± 0.083 kcal/mol | 1.1 ± 0.24 kcal/mol | 0.529 ± 0.24 kcal/mol |
| SMKVTLDGKGSVTTMPAEQLEVLIKELKEKGYKVKILSEEPDPNSDTVNYTIEITPPKPEKEEFENEELKSA [r9_448_JUSTAS] | 0.948 ± 0.039 kcal/mol | 1.94 ± 0.12 kcal/mol | 1.59 ± 0.12 kcal/mol |
| SMKVTVTVERLPDGRGRITITINDSTLEIEVPPGLDPEELRAFAEETAKEIEEKLKEEGNPVTIEEITLSSA [r9_751_JUSTAS] | 2.58 ± 0.14 kcal/mol | 1.61 ± 0.14 kcal/mol | 2.15 ± 0.24 kcal/mol |
| SMKVYVKVLPPEYAVAYIYTDKKYEIPIPTTDLEEARAQIEEIVNEIEKRTGVKAEVEITEVAPDTKIPLSA [r9_786_JUSTAS] | 0.182 ± 0.15 kcal/mol | 0.928 ± 0.13 kcal/mol | 0.74 ± 0.22 kcal/mol |
| SMKYVKILLTLKGKPHVITIPSSLSLEEIIDKAIEFAKELGYKDIPKEELKILKVEENPDEEGSSSIIIGSA [r9_1053_TrMRF] | 3.48 ± 0.2 kcal/mol | 3.74 ± 0.042 kcal/mol | 3.61 ± 0.14 kcal/mol |
| SMLKEIPITVPEEGEVVTVNIEELAKEQGLDPNNVTVTVTSSGPGKVYKITISSNGITITEVGNVPTALLSA [r9_819_JUSTAS] | 0.546 ± 0.04 kcal/mol | 0.684 ± 0.098 kcal/mol | 0.717 ± 0.081 kcal/mol |
| SMLLIKITVKNPDGEEKEIVLSAEELRKLFEEETGEEYSLEEIAERLKKLFPNAKVEIVPLEELSEEELKSA [r9_1085_TrROS_Hall] | 2.77 ± 0.073 kcal/mol | 3.58 ± 0.068 kcal/mol | 3.31 ± 0.12 kcal/mol |
| SMLVLRLPDNRLAVLEYDPETKRLRVLVVDPESGRLTVAEIHPETGEITVDEYTLLPNGEPLPHRFELPLSA [r9_1073_TrMRF] | 2.84 ± 0.099 kcal/mol | 2.54 ± 0.048 kcal/mol | 2.73 ± 0.058 kcal/mol |
| SMLYRVTTVVVRGDRPLVIPVLADSLEAFLEEAREAIPPELREELPPDAVVRVFVEPVPAVVPEPGEPLPSA [r9_111_TrMRF] | 1.42 ± 0.057 kcal/mol | 2.03 ± 0.069 kcal/mol | 1.77 ± 0.25 kcal/mol |
| SMMIKVKITITNEKGEEVEIEIVASPEEIEEALRKLLPPGAKVEIEKIEFYPLEELKPGDVIKITVRVKPSA [r9_803_TrROS_Hall] | 2.85 ± 0.11 kcal/mol | 4.47 ± 0.54 kcal/mol | 3.72 ± 0.34 kcal/mol |
| SMNIHIPILTRPDVDEETIEEEVEALAAELAEKLGLPEGVEVEIEPEPLPEDGVVYHVTLRVGDVEFKGESA [r9_776_TrMRF] | 0.168 ± 0.14 kcal/mol | 0.0835 ± 0.4 kcal/mol | 0.0299 ± 0.33 kcal/mol |
| SMNIVEIEVEEKIIGDTTTITIPIKVNGPAVSEEEIKKIVEDIFKKKGLKINIKIEKDPNSGVITITIIESA [r9_717_JUSTAS] | 2.01 ± 0.15 kcal/mol | 2.55 ± 0.12 kcal/mol | 2.33 ± 0.19 kcal/mol |
| SMNPIGNPITLPDGTTITIIPDLGLILIYDPETGTFIARLILVDENGIPHIFPFIGKIDPETGEIIEIDPSA [r9_122_TrMRF] | 3.31 ± 0.11 kcal/mol | 4.13 ± 0.062 kcal/mol | 3.87 ± 0.069 kcal/mol |
| SMPEILDVREDPDAPGALTFRVKLPDGEATVVIPYDPETGTFTAVRYYPDGEEVREFDSFEDALEAILEDSA [r9_366_TrMRF] | 1.45 ± 0.019 kcal/mol | 1.46 ± 0.051 kcal/mol | 1.49 ± 0.053 kcal/mol |
| SMPGSITVEIEVEEEEDPERGGRRIKKLLIKKVTYKDEKGNSSDEVANEIKNALKEKLEKEGKPAEIELTSA [r9_261_JUSTAS] | 1.35 ± 0.081 kcal/mol | 1.11 ± 0.23 kcal/mol | 1.27 ± 0.37 kcal/mol |
